Experimental findings from article PMC5913134, “The IL-33-PIN1-IRAK-M axis is critical for type 2 immunity in IL-33-induced allergic airway inflammation” (Nature Communications, 2018) are described below.

The subject of assay [1] is CD3+ CD4+ T cells. Briefly: Lung CD3+ CD4+ T cells after IL-33 challenge. The following applies: IL-33 intranasal, sorted lung T cells, n=3. The assay is classed as in vivo, mouse. Here is the method:
Lungs were digested using Kollagenase D and dispase and the dendritic cells populations (CD11c^+ CD205^+ CD11b^+) were determined by staining the cells using the following antibodies: PE anti mouse CD11c (catalog number 117307), APC anti mouse CD205 (catalog number 138205), FITC anti mouse CD11b (catalog number 101205). For co stimulatory protein expression, FITC anti mouse CD40 (catalog number 124607), FITC anti mouse CD80 (catalog number 104705), FITC anti mouse CD86 (catalog number 105005) were used. […] Cells were analyzed using LSRII flow cytometer and FlowJo software. […]
Supplementary Figure 6. […] ( b) The indicated lungs were digested and the CD3+ CD4+ cells were monitored and cell sorted using APC-CD3 and FITC-CD4 antibodies respectively, for further analysis. […] (c) Sorted CD3+ CD4+ cells from the indicated mice after PBS and IL-33 challenge were analyzed for IL-13 and IL-5 expression (n=3).
(d) Quantification of figure 6E; Dendritic cell CD11b+ expression in WT, Pin1KO and IRAK-M KO mice lungs, either treated with IL-33 or PBS as before. (e) WT and IRAK-M KO mice were either treated with IL-33 or PBS, the lungs were digested and the CD11c+ cells were analyzed for the expression of costimulatory proteins CD40, CD80 and CD86. […]

Assay [2] relates to IRAK-M. In words: IRAK-M nuclear localization in DC2.4 cells. The class given is cell-based, C57BL/6. The following applies: DC2.4 cells, after IL-33 induction. Here is the method: Suppl em enta ry Figur e 3. a DAPI IR AK-M Pin1 Mergeb […]
Supplementary Figure 3. Pin1 targets IRAK-M and promotes its nuclear translocation upon IL-33 induction.
(a) Immunostaining for IRAK-M and Pin1 in DC2.4 cells before and after IL-33 treatment. ( b) DC2.4 cells were treated with IL-33 and subjected to nuclear/cytoplasmic fractionation, followed by Western blot for IRAK-M with actin as a cytoplasmic marker and Fox1 as a nuclear marker. C- cytoplasmic; N- Nuclear.
(c) Cytospin slides from BALF of the treated WT mice as indicated, were co stained for DC205 and IRAK-M.
(d) IRAK-M or its mutants S110E or P111A were stably expressed in DC2.4 cells and their localization and Pin1 localization were monitored by immunostaining. (e) GFP-IRAK-M were expressed in Pin1 KO MEFs either with or without RFP-Pin1 as indicated, and their localization was monitored. Scale = 50 µm.
(also on this page, place not known: Control +IL-33: b DAPIe MergeGFP RFP GFP- GFP-IRAK-M/ RFP MergeIRAK-M Pin1DAPI ControlIL-33 Mergec Supplementary Figure IRAK-M IRAK-M (b) IL-33 IRAK-M IRAK-M Pin1) […]

Assay [3] has as its system WT, PIN1 KO and IRAK-M KO mice. In words: IL-33-induced airway inflammation in mice. The assay is classed as in vivo, mouse. The settings on record: for BALF TH2 cytokines (IL-4, -5 and -13): IL-33 intranasal. Here is the method:
Male mice in each group, 3-5 weeks old were anesthetized using Isoflurane. The mice were treated intranasal with 200ng/mice/day for four continues days. By the fifth day the mice were killed by CO2 suffocation, and bronchial alveolar lavage fluid (BALF) was extracted using PBS. The lungs were extracted and fixed using 10% para formaldehyde. Immunofluresence of slide sections was performed. Slides were analyzed using anti-PIN1 antibodies and anti-IRAK-M antibodies or IgG as control and were counterstained using DAPI. In some cases, cells obtained from BALF were cytospined and the cells were fixed and stained in the same manner. For staining of the cells, Diff-Quick (Diff-Quik) Staining Protocol were used. All animal work was carried out in compliance with the ethical regulations approved by the Animal Care Committee, Beth Israel Deaconess Medical Center, Boston, MA, USA. The permission was granted to perform animal experiments by the Institutional Animal Care and Use Committee at Beth Israel Deaconess Medical Center, Boston, MA, USA.

B1: IL-33: Recombinant mouse IL-33 purchased from BioLegend (protein, UniProt Q8BVZ5 1-266, looked up)
Interleukin-33: MRPRMKYSNSKISPAKFSSTAGEALVPPCKIRRSQQKTKEFCHVYCMRLRSGLTIRKETSYFRKEPTKRYSLKSGTKHEENFSAYPRDSRKRSLLGSIQAFAASVDTLSIQGTSLLTQSPASLSTYNDQSVSFVLENGCYVINVDDSGKDQEQDQVLLRYYESPCPASQSGDGVDGKKLMVNMSPIKDTDIWLHANDKDYSVELQRGDVSPPEQAFFVLHKKSSDFVSFECKNLPGTYIGVKDNQLALVEEKDESCNNIMFKLSKI
As for B1, the “Il13 and -5 expression in CD3+ CD4+ T cells” value in assay [1] is “markedly induced expression”. Moreover, the IRAK-M nuclear localization result in assay [2] is listed as “also evident in the nucleus”. The “response (infiltrates, cell counts)” value in assay [3] (PIN1 KO mice, intranasal 200 ng/mice/day, 4 days) is on record as “very mild responses”. The figures for the “BALF TH2 cytokines (IL-4, -5 and -13)” value in assay [3] (PIN1 KO or IRAK-M KO mice) and in assay [3] (WT mice) were “dramatically attenuated” and “high levels of TH2 cytokines”, respectively. Also, the “BALF TH2 cytokines (IL-4, -5, -6 and -13)” value in assay [3] (PIN1 KO vs WT mice, IL-33 intranasal 200 ng/mice/day, 4 days) is “drastically lower”. The lung inflammation entry in assay [3] (WT mice, intranasal 200 ng/mice/day, 4 days) is “moderate to severe inflammation and high levels of infiltrating cells, especially eosinophils”. Moreover, the “lung inflammation and bronchial remodeling” value in assay [3] (WT mice, intranasal IL-33) was “severe lung inflammation and bronchial remodeling”. Besides, the “IRAK-M expression in lung cells” value in assay [3] (WT mice, intranasal IL-33, immunostaining) was “dramatically increased IRAK-M expression”. Moreover, the “lung expression of Il6, Csf3, Cxcl2 and Ccl5” value in assay [3] (WT mice, whole lung tissue, qRT-PCR) is on record as “upregulated”.
